{"source": "patent US20140302035A1", "about": "(MERRIMACK PHARMACEUTICALS, published 2014)", "binders": {"B1": {"name": "Onartuzumab-23E (antibody)", "heavy": "EVQLVESGGGLVQPGGSLRLSCAASGYTFTSYWLHWVRQAPGKGLEWVGMIDPSNSDTRFNPNFKDRFTISADTSKNTAYLQMNSLRAEDTAVYYCATYRSYVTPLDYWGQGTLVTVSSASTKGPSVFPLAPSSKSTSGGTAALGCLVKDYFPEPVTVSWNSGALTSGVHTFPAVLQSSGLYSLSSVVTVPSSSLGTQTYICNVNHKPSNTKVDKKVEPKSCDKTHTCPPCPAPELLGGPSVFLFPPKPKDTLMISRTPEVTCVVVDVSHEDPEVKFNWYVDGVEVHNAKTKPREEQYQSTYRVVSVLTVLHQDWLNGKEYKCKVSNKALPAPIEKTISKAKGQPREPQVYTLPPSREEMTKNQVSLSCAVKGFYPSDIAVEWESNGQPENNYKTTPPVLDSDGSFFLVSKLTVDKSRWQQGNVFSCSVMHEALHNHYTQKSLSLSKSCDKTGGGGSGGGGSGGGGSGGGGSGGGGSGGGGSGGGGSGGGGSCPPCPAPELLGGPSVFLFPPKPKDTLMISRTPEVTCVVVDVSHEDPEVKFNWYVDGVEVHNAKTKPREEQYQSTYRVVSVLTVLHQDWLNGKEYKCKVSNKALPAPIEKTISKAKGQPREPQVYTLPPSREEMTKNQVSLWCLVKGFYPSDIAVEWESNGQPENNYKTTPPVLDSDGSFFLYSKLTVDKSRWQQGNVFSCSVMHEALHNHYTQKSLSLSGEC", "light": "DIQMTQSPSSLSASVGDRVTITCKSSQSLLYTSSQKNYLAWYQQKPGKAPKLLIYWASTRESGVPSRFSGSGSGTDFTLTISSLQPEDFATYYCQQYYAYPWTFGQGTKVEIKRTVAAPSVFIFPPSDEQLKSGTASVVCLLNNFYPREAKVQWKVDNALQSGNSQESVTEQDSKDSTYSLSSTLTLSKADYEKHKVYACEVTHQGLSSPVTKSFNRGEC", "notes": "Monovalent tandem Fc antibody: onartuzumab anti-c-Met Fab on IgG1 TFc 23E"}, "B2": {"name": "Onartuzumab-39EGY4 (antibody)", "heavy": "EVQLVESGGGLVQPGGSLRLSCAASGYTFTSYWLHWVRQAPGKGLEWVGMIDPSNSDTRFNPNFKDRFTISADTSKNTAYLQMNSLRAEDTAVYYCATYRSYVTPLDYWGQGTLVTVSSASTKGPSVFPLAPSSKSTSGGTAALGCLVKDYFPEPVTVSWNSGALTSGVHTFPAVLQSSGLYSLSSVVTVPSSSLGTQTYICNVNHKPSNTKVDKKVEPKSCDKTHTCPSCPAPEFLGGPSVFLFPPKPKDTLMISRTPEVTCVVVDVSQEDPEVQFNWYVDGVEVHNAKTKPREEQFNSKYRVVSVLTVLHQDWLNGKEYKCKVSNKGLPSSIEKTISKAKGQPREPQVYTLPPSREEMTKNQVSLSCAVKGFYPSDIAVEWESNGQPENNYKTTPPVLDSDGSFFLVSKLTVDKSRWQQGNVFSCSVMHEALHNHYTQKSLSLSKSCDKTGGGGSGGGGSGGGGSGGGGSGGGGSGGGGSGGGGSGGGGSCPSCPAPEFLGGPSVFLFPPKPKDTLMISRTPEVTCVVVDVSQEDPEVQFNWYVDGVEVHNAKTKPREEQFNSDYRVVSVLTVLHQDWLNGKEYKCKVSNKGLPSSIEKTISKAKGQPREPQVYTLPPSREEMTKNQVSLWCLVKGFYPSDIAVEWESNGQPENNYKTTPPVLDSDGSFFLYSKLTVDKSRWQQGNVFSCSVMHEALHNHYTQKSLSLSGEC", "light": "B1 light", "notes": "Monovalent tandem Fc antibody: onartuzumab anti-c-Met Fab on IgG1/IgG4 hybrid TFc 39E glycoform 4"}, "B3": {"name": "Ab#8 (bispecific antibody, human IgG1, kappa)", "heavy": "QLQLQESGPGLVKPSETLSLTCTVSGGSISSSVYYWSWIRQPPGKGLEWIGVIYPSGNTYYSPSLKSRVTISVDTSKNQFSLKLSSVTAADTAVYYCARTIYDLFDIWGQGTMVTVSSASTKGPSVFPLAPSSKSTSGGTAALGCLVKDYFPEPVTVSWNSGALTSGVHTFPAVLQSSGLYSLSSVVTVPSSSLGTQTYICNVNHKPSNTKVDKKVEPKSCDKTHTCPSCPAPEFLGGPSVFLFPPKPKDTLMISRTPEVTCVVVDVSQEDPEVQFNWYVDGVEVHNAKTKPREEQFNSKYRVVSVLTVLHQDWLNGKEYKCKVSNKGLPSSIEKTISKAKGQPREPQVYTLPPSREEMTKNQVSLSCAVKGFYPSDIAVEWESNGQPENNYKTTPPVLDSDGSFFLVSKLTVDKSRWQQGNVFSCSVMHEALHNHYTQKSLSLSKSCDKTGGGGSGGGGSGGGGSGGGGSGGGGSGGGGSGGGGSGGGGSCPSCPAPEFLGGPSVFLFPPKPKDTLMISRTPEVTCVVVDVSQEDPEVQFNWYVDGVEVHNAKTKPREEQFNSDYRVVSVLTVLHQDWLNGKEYKCKVSNKGLPSSIEKTISKAKGQPREPQVYTLPPSREEMTKNQVSLWCLVKGFYPSDIAVEWESNGQPENNYKTTPPVLDSDGSFFLYSKLTVDKSRWQQGNVFSCSVMHEALHNHYTQKSLSLSGECGGGGSGGGGSQVQLVQSGAEVKKPGESVKISCKASGYTFTNYGMNWVRQAPGQGLKWMGWINTYTGESTYADDFKGRFAFSLDTSASTAYLQLSSLRSEDTAVYFCARFAIKGDYWGQGTLVTVSSASTGGGGSGGGGSGGGGSGGGGSDIVMTQSPLSLPVTPGEPASISCRSTKSLLHSDGITYLYWYLQKPGQSPQLLIYQMSNLASGVPDRFSSSGSGTDFTLKISRVEAEDEGVYYCAQNLEIPRTFGGGTKLEIKRT", "light": "DIQMTQSPSSVSASVGDRVTITCRASQGISSWLAWYQQKPGKAPKLLIYAASSLQSGVPSRFSGSGSGTDFTLTISSLQPEDFATYYCLQANSFPPTFGGGTKVEIKRTVAAPSVFIFPPSDEQLKSGTASVVCLLNNFYPREAKVQWKVDNALQSGNSQESVTEQDSKDSTYSLSSTLTLSKADYEKHKVYACEVTHQGLSSPVTKSFNRGEC", "notes": "Anti-c-Met Fab / tandem Fc / anti-EpCAM scFv TFcBA; also called Antibody #8"}, "B4": {"name": "Ab#9 (bispecific antibody, human IgG1, kappa)", "heavy": "QLQLQESGPGLVKPSETLSLTCTVSGGSISSSVYYWSWIRQPPGKGLEWIGVIYPSGNTYYSPSLKSRVTISVDTSKNQFSLKLSSVTAADTAVYYCARTIYDLFDIWGQGTMVTVSSASTKGPSVFPLAPSSKSTSGGTAALGCLVKDYFPEPVTVSWNSGALTSGVHTFPAVLQSSGLYSLSSVVTVPSSSLGTQTYICNVNHKPSNTKVDKKVEPKSCDKTHTCPSCPAPEFLGGPSVFLFPPKPKDTLMISRTPEVTCVVVDVSQEDPEVQFNWYVDGVEVHNAKTKPREEQFNSKYRVVSVLTVLHQDWLNGKEYKCKVSNKGLPSSIEKTISKAKGQPREPQVYTLPPSREEMTKNQVSLSCAVKGFYPSDIAVEWESNGQPENNYKTTPPVLDSDGSFFLVSKLTVDKSRWQQGNVFSCSVMHEALHNHYTQKSLSLSKSCDKTGGGGSGGGGSGGGGSGGGGSGGGGSGGGGSGGGGSGGGGSCPSCPAPEFLGGPSVFLFPPKPKDTLMISRTPEVTCVVVDVSQEDPEVQFNWYVDGVEVHNAKTKPREEQFNSDYRVVSVLTVLHQDWLNGKEYKCKVSNKGLPSSIEKTISKAKGQPREPQVYTLPPSREEMTKNQVSLWCLVKGFYPSDIAVEWESNGQPENNYKTTPPVLDSDGSFFLYSKLTVDKSRWQQGNVFSCSVMHEALHNHYTQKSLSLSGECGGGGSGGGGSQVQLQQSGGGLVKPGESVKISCAASGYTFTNYGMNWVKQAPGKGLKWMGWINTYTGESTYADDFKGRFTFSLETSASAAYLQINSLRPEDTAVYFCARFAIKGDYWGQGTTVTVSSASTGGGGSGGGGSGGGGSGGGGSGDIVMTQSPSSLSASVGDKATITCRSTKSLLHSNGITYLYWYLQKPGKAPKLLIYQMSNLASGVPDRFSSSGSGTEFTLTISSVQPEDEGTYYCAQNLEIPRTFGQGTKLEIK", "light": "B3 light", "notes": "Anti-c-Met Fab / tandem Fc / anti-EpCAM scFv TFcBA; also called Antibody #9"}, "B5": {"name": "Ab#10 (bispecific antibody, human IgG1, kappa)", "heavy": "B4 heavy with N896D, M919L", "light": "B3 light", "notes": "Anti-c-Met Fab / tandem Fc / anti-EpCAM scFv TFcBA; also called Antibody #10"}, "B6": {"name": "Ab#11 (bispecific antibody, human IgG1, kappa)", "heavy": "QLQLQESGPGLVKPSETLSLTCTVSGGSISSSVYYWSWIRQPPGKGLEWIGVIYPSGNTYYSPSLKSRVTISVDTSKNQFSLKLSSVTAADTAVYYCARTIYDLFDIWGQGTMVTVSSASTKGPSVFPLAPSSKSTSGGTAALGCLVKDYFPEPVTVSWNSGALTSGVHTFPAVLQSSGLYSLSSVVTVPSSSLGTQTYICNVNHKPSNTKVDKKVEPKSCDKTHTCPSCPAPEFLGGPSVFLFPPKPKDTLMISRTPEVTCVVVDVSQEDPEVQFNWYVDGVEVHNAKTKPREEQFNSKYRVVSVLTVLHQDWLNGKEYKCKVSNKGLPSSIEKTISKAKGQPREPQVYTLPPSREEMTKNQVSLSCAVKGFYPSDIAVEWESNGQPENNYKTTPPVLDSDGSFFLVSKLTVDKSRWQQGNVFSCSVMHEALHNHYTQKSLSLSKSCDKTGGGGSGGGGSGGGGSGGGGSGGGGSGGGGSGGGGSGGGGSCPSCPAPEFLGGPSVFLFPPKPKDTLMISRTPEVTCVVVDVSQEDPEVQFNWYVDGVEVHNAKTKPREEQFNSDYRVVSVLTVLHQDWLNGKEYKCKVSNKGLPSSIEKTISKAKGQPREPQVYTLPPSREEMTKNQVSLWCLVKGFYPSDIAVEWESNGQPENNYKTTPPVLDSDGSFFLYSKLTVDKSRWQQGNVFSCSVMHEALHNHYTQKSLSLSGECGGGGSGGGGSDIVMTQSPSSLSASVGDKATITCRSTKSLLHSNGITYLYWYLQKPGKAPKLLIYQMSNLASGVPDRFSSSGSGTEFTLTISSVQPEDEGTYYCAQNLEIPRTFGQGTKLEIKRTGGGGSGGGGSGGGGSGGGGSGQVQLQQSGGGLVKPGESVKISCAASGYTFTNYGMNWVKQAPGKGLKWMGWINTYTGESTYADDFKGRFTFSLETSASAAYLQINSLRPEDTAVYFCARFAIKGDYWGQGTTVTVSS", "light": "B3 light", "notes": "Anti-c-Met Fab / tandem Fc / anti-EpCAM scFv TFcBA; also called Antibody #11"}, "B7": {"name": "Ab#12 (bispecific antibody)", "heavy": "B6 heavy with N756D, M779L", "light": "B3 light", "notes": "Anti-c-Met Fab / tandem Fc / anti-EpCAM scFv TFcBA; also called Antibody #12"}}, "note": "Positions count from the first letter of the chain named.", "data": [{"target": "T1, cMet-his (Homo sapiens (Human), UniProt P08581 25-933)", "T1 construct": "also called his tagged cMET; Recombinant polyhistidine-tagged c-Met", "assay": "BLI (ForteBio Octet), antibody loaded on Protein A tips, his tagged cMET in solution, 1:1 model", "method": "Protocol: All reagents are equilibrated and samples are brought to room temperature. Protein A sensor tips (Fortebio, #18-5010) are hydrated for 10 min in 1×PBS. Kinetic assays are run using the Octet software and procedure per manufacturer's instruction. Assay steps typically include: 1-2 min of equilibration in 1×PBS, 4 min of antibody loading (conc: 50 μg/mL in 1×PBS), 1-2 min of baseline stabilization, 4 min of antibody:antigen association, and 4 min of antibody:antigen dissociation. 1×PBS is used as the matrix throughout. Data are analyzed with Octet Data Analysis software, processed, and fit to the curve using 1:1 binding model to determine kinetic parameters (Kₐ, Kₒₙ and Koff)", "units": {"Kd": "nM"}, "values": [{"binder": "B1", "Kd": 1.3}, {"binder": "B2", "Kd": 1.25}]}, {"target": "T2, Human EpCAM-Fc-his tagged (human)", "T2 construct": "also called Recombinant polyhistidine-tagged EpCAM-Fc; recombinant EpCAM", "T2 sequence (chain, as listed by the source)": "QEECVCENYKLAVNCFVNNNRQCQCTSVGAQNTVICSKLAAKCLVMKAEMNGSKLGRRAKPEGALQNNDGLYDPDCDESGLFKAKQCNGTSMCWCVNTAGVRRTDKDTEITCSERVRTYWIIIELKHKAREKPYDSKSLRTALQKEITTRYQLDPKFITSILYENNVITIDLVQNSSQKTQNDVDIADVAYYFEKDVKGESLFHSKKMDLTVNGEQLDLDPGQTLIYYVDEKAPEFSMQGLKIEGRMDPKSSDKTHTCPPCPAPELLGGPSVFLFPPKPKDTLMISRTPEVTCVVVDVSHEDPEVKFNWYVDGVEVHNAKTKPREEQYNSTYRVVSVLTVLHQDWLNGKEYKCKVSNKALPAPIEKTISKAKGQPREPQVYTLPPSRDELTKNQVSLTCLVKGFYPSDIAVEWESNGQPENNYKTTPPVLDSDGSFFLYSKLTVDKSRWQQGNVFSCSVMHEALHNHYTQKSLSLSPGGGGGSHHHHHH", "assay": "BLI (ForteBio Octet), antibody loaded on Protein A tips, recombinant polyhistidine-tagged EpCAM-Fc in solution, 1:1 model", "method": "For Octet analysis, all reagents and samples are brought to room temperature. Protein A sensor tips (ForteBio, #18-5010) are hydrated for 10 minutes in 1×PBS. Assay steps include: 1-2 minutes of equilibration in 1×PBS, 4 minutes of antibody loading (concentration of 50 μg/ml in 1×PBS), 1-2 minutes of baseline stabilization, 4 minutes of antibody:antigen association, and 4 minutes of antibody:antigen dissociation. 1×PBS is used as the matrix throughout. Data are analyzed with Octet Data Analysis software, processed, and fit to a 1:1 binding model to determine kinetic parameters (Kd, kₒₙ and kdiss).\nTable A-2 describes approximate EpCAM binding affinity and dissociation rate as determined for Ab#1, Ab#2, Ab#3, Ab#4, Ab#5, Ab#6, Ab#7, Ab#8, Ab#9, Ab#10, Ab#11, Ab#12, and Ab#13.", "units": {"Kd": "nM", "koff": "s⁻¹"}, "values": [{"binder": "B3", "Kd": 16.7, "koff": 0.00098}, {"binder": "B4", "Kd": 10, "koff": 0.00043}, {"binder": "B5", "Kd": 26.2, "koff": 0.00211}, {"binder": "B6", "Kd": 4.57, "koff": 0.000409}, {"binder": "B7", "Kd": 24.5, "koff": 0.00166}]}]}
